Assay results as given in paper PMC12806483, “Dual role of ramR mutation in enhancing immune activation and elevating eravacycline resistance in Klebsiella pneumoniae”.

Experiments:
Experiment in all cases: EMSA; 2 uM protein, 200 nM DNA
Conditions in all cases: protein: recombinant; tags: N-terminal His6; chain copies: 2; label: none (NA-Green stain); blunt
RamR WT = RamR WT (Klebsiella pneumoniae, UniProt A0A0H3GJQ8 1-194)
RamR I141T = RamR I141T (Klebsiella pneumoniae, UniProt A0A0H3GJQ8 1-194, I141T)
RamR L58P = RamR L58P (Klebsiella pneumoniae, UniProt A0A0H3GJQ8 1-194, L58P)

B1: ramA promoter probe (ramA P-F/ramA P-R) (dsDNA)
DNA 1: AAAACGAATCGTCCTGCATGCCCAGGCAGCACCGCGCGAGCGCGCAGGTCGTCGGCAGCCTGAGCCGTTTCATCCGGCATCATGTGGATATATTTCCAGTC
DNA 2: GACTGGAAATATATCCACATGATGCCGGATGAAACGGCTCAGGCTGCCGACGACCTGCGCGCTCGCGCGGTGCTGCCTGGGCATGCAGGACGATTCGTTTT
**Q.** Does B1 bind (RamR WT)?
**A.** Result: binds

**Q.** Does B1 bind (RamR I141T)?
**A.** Result: binds

**Q.** Does B1 bind (RamR L58P)?
**A.** Result: no binding
